From patent publication US20220089722A1 (NANTONG YICHEN BIOPHARMA, published 2022)

How the values were obtained:
[1] = target: T1, CD3 on T cells (Jurkat T cells; PBMC-T cells); experiment: flow cytometry on Jurkat T cells
T1 construct: whole, on cells; the target is inferred from the anti-CD3 arm of the constructs
Method: Jurkat cells (a medium containing 10% FBS) were cultured. 2×10⁵ cells were washed by precooled PBS for 3 times, and blocked by 2% FBS (soluble to PBS). Purified IgFD-11, IgFD-8, IgFD-25, IgFD-26, IgFD-31 or IgFD-36 (aEGFR expressed in a laboratory as a control) were added and incubated for 2 h at 4° C. (cells were gently mixed during incubation), followed by 2% FBS(in PBS) wash. The cells were incubated by FITC anti-human IgGFc (KPL, Inc., MD) for 1 h at 4° C. and subjected to flow cytometry analysis after washing with 2% FBS(in PBS).

[2] = target: T2, EGFR on F98-EGFR cells (UniProt P00533 25-1210, limits assumed); experiment: cell-based or functional assay
[3] = target: T2, EGFR on F98-EGFR cells; experiment: flow cytometry on F98-EGFR cells
Method: F98-EGFR cells (a DMEM containing 10% FBS, 200 μg/ml G418) were cultured. 2×10⁵ cells were washed by precooled PBS for 3 times, and blocked by 2% FBS (soluble to PBS). IgFD-8, IgFD-9, IgFD-10, IgFD-11, IgFD-18, IgFD-19, IgFD-25, IgFD-26 or IgFD-31 (aEGFR expressed in a laboratory as a control) was added and incubated for 2 h at 4° C. (cells were gently mixed during incubation), unbounded antibodies were washed by 2% FBS (soluble to PBS), and then the remaining cells were incubated by FITC anti-human IgGFc(KPL, Inc., MD) for 1 h at 4° C., and washed by 2% FBS (soluble to PBS) for flow cytometry analysis. As shown in FIG. 7 and Table 4, the anti-CD3/anti-EGFR heterodimers in different forms of fusion could bind to EGFR on F98-EGFR cells, and there was no significant difference in the binding capacity of different heterodimers to F98-EGFR.

[4] = target: T3, CD19 on NALM-6 cells (UniProt P15391 20-556, limits assumed); experiment: cell-based or functional assay
T3 sequence (looked up): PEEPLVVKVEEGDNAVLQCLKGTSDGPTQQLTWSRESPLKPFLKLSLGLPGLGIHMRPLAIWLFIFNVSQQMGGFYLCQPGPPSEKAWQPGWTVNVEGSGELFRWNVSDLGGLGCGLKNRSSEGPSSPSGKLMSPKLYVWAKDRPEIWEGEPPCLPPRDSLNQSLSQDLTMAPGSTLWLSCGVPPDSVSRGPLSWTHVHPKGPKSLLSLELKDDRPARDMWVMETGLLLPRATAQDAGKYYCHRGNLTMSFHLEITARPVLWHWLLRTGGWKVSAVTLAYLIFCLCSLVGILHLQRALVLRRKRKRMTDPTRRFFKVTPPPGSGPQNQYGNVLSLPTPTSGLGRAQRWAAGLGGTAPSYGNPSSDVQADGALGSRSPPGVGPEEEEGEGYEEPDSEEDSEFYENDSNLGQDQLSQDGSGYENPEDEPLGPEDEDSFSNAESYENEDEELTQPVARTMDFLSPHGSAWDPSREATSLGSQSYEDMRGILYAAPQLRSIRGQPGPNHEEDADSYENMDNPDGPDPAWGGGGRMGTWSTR

T1 sequence (P07766 23-207): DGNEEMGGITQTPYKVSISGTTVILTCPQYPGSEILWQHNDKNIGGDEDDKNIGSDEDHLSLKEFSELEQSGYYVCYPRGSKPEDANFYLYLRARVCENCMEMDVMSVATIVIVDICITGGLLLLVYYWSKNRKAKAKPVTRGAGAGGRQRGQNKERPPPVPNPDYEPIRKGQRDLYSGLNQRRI

Binder | Kd [1] [nM] | Promotion for the specific killing effect of PBMCs on target cells by heterodimers (EC50, pM); F98-EGFR cells, LDH assay [2] [pM] | Kd [3] [nM] | Promotion for the specific killing effect of PBMCs on target cells by heterodimers (EC50, pM); Nalm-6 cells [4] [pM]
IgFD-26(anti-CD3/EGFR) (bispecific antibody, human IgG1, kappa, N297A) chain 1: not shown chain 2: QAVVTQEPSLTVSPGGTVTLTCRSSTGAVTTSNYANWVQQKPDHLFRGLIGGTNKRAPGTPARFSGSLLGDKAALTISGAQPEDEAEYYCALWYSNLWVFGGGTKLTVLKRTVAAPSVFIFPPSDEQLKSGTASVVCLLNNFYPREAKVQWKVDNALQSGNSQESVTEQDSKDSTYSLSSTLTLSKADYEKHKVYACEVTHQGLSSPVTKSFNRGECDKTHTCPPCPAPELLGGPSVFLFPPKPKDTLMISRTPEVTCVVVDVSHEDPEVKFNWYVDGVEVHNAKTKPREEQYASTYRVVSVLTVLHQDWLNGKEYKCKVSNKALPAPIEKTISKAKGQPREPQVCTLPPSREEMTKNQVSLSCAVKGFYPSDIAVEWESNGQPENNYKTTPPVLDSDGSFFLVSKLTVDKSRWQQGNVFSCSVMHEALHNHYTQKSLSLSPGKGGSGGSGGGGSGGGGSDIQMTQSPSSLSASVGDRVTITCQASQDISNYLNWYQQKPGKAPKLLIYDASNLETGVPSRFSGSGSGTDFTFTISSLQPEDIATYFCQHFDHLPLAFGGGTKVEIKGGGGSGGGGSGGGGSQVQLQESGPGLVKPSETLSLTCTVSGGSVSSGDYYWTWIRQSPGKGLEWIGHIYYSGNTNYNPSLKSRLTISIDTSKTQFSLKLSSVTAADTAIYYCVRDRVTGAFDIWGQGTMVTVSS | 4.23 | 105 | 5.28 | 
IgFD-6(anti-CD19/CD3) (bispecific antibody, human IgG1, kappa) chain 1: EVQLVESGGGLVQPGGSLRLSCAASGFTFNTYAMNWVRQAPGKGLEWVARIRSKYNNYATYYADSVKDRFTISRDDSKNTLYLQMNSLRAEDTAVYYCVRHGNFGNSYVSWFAYWGQGTLVTVSSASTKGPSVFPLAPSSKSTSGGTAALGCLVKDYFPEPVTVSWNSGALTSGVHTFPAVLQSSGLYSLSSVVTVPSSSLGTQTYICNVNHKPSNTKVDKKVEPKSCDKTHTCPPCPAPPVAGPSVFLFPPKPKDTLMISRTPEVTCVVVDVSHEDPEVKFNWYVDGVEVHNAKTKPREEQYNSTYRVVSVLTVLHQDWLNGKEYKCKVSNKGLPSSIEKTISKAKGQPREPQVYTLPPSRDELTKNQVSLTCLVKGFYPSDIAVEWESNGQPENNYKTTPPVLDSDGSFFLYSKLTVDKSRWQQGNVFSCSVMHEALHNHYTQKSLSLSPGKSGGGGSGGGGSGGGGSDIQMTQTTSSLSASLGDRVTISCRASQDISKYLNWYQQKPDGTVKLLIYHTSRLHSGVPSRFSGSGSGTDYSLTISNLEQEDIATYFCQQGNTLPYTFGGGTKLEITGGGGSGGGGSGGGGSEVKLQESGPGLVAPSQSLSVTCTVSGVSLPDYGVSWIRQPPRKGLEWLGVIWGSETTYYNSALKSRLTIIKDNSKSQVFLKMNSLQTDDTAIYYCAKHYYYGGSYAMDYWGQGTSVTVSS chain 2: QAVVTQEPSLTVSPGGTVTLTCRSSTGAVTTSNYANWVQQKPDHLFRGLIGGTNKRAPGTPARFSGSLLGDKAALTISGAQPEDEAEYYCALWYSNLWVFGGGTKLTVLKRTVAAPSVFIFPPSDEQLKSGTASVVCLLNNFYPREAKVQWKVDNALQSGNSQESVTEQDSKDSTYSLSSTLTLSKADYEKHKVYACEVTHQGLSSPVTKSFNRGECDKTHTCPPCPAPPVAGPSVFLFPPKPKDTLMISRTPEVTCVVVDVSHEDPEVKFNWYVDGVEVHNAKTKPREEQYNSTYRVVSVLTVLHQDWLNGKEYKCKVSNKGLPSSIEKTISKAKGQPREPQVYTLPPSRDELTKNQVSLTCLVKGFYPSDIAVEWESNGQPENNYKTTPPVLDSDGSFFLYSKLTVDKSRWQQGNVFSCSVMHEALHNHYTQKSLSLSPGK |  |  |  | 14.9
IgFD-31(anti-CD3/EGFR) (bispecific antibody) chain 1: EVQLVESGGGLVQPGGSLRLSCAASGFTFNTYAMNWVRQAPGKGLEWVARIRSKYNNYATYYADSVKDRFTISRDDSKNTLYLQMNSLRAEDTAVYYCVRHGNFGNSYVSWFAYWGQGTLVTVSSASTKGPSVFPLAPSSKSTSGGTAALGCLVKDYFPEPVTVSWNSGALTSGVHTFPAVLQSSGLYSLSSVVTVPSSSLGTQTYICNVNHKPSNTKVDKKVEPKSCGGSGAKLAALKAKLAALKGGGGSDKTHTCPPCPAPPVAGPSVFLFPPKPKDTLMISRTPEVTCVVVDVSHEDPEVKFNWYVDGVEVHNAKTKPREEQYNSTYRVVSVLTVLHQDWLNGKEYKCKVSNKGLPSSIEKTISKAKGQPREPQVYTLPPSRDELTKNQVSLTCLVKGFYPSDIAVEWESNGQPENNYKTTPPVLDSDGSFFLYSKLTVDKSRWQQGNVFSCSVMHEALHNHYTQKSLSLSPGK chain 2: QAVVTQEPSLTVSPGGTVTLTCRSSTGAVTTSNYANWVQQKPDHLFRGLIGGTNKRAPGTPARFSGSLLGDKAALTISGAQPEDEAEYYCALWYSNLWVFGGGTKLTVLKRTVAAPSVFIFPPSDEQLKSGTASVVCLLNNFYPREAKVQWKVDNALQSGNSQESVTEQDSKDSTYSLSSTLTLSKADYEKHKVYACEVTHQGLSSPVTKSFNRGECGGGGSELAALEAELAALEAGGSGDKTHTCPPCPAPPVAGPSVFLFPPKPKDTLMISRTPEVTCVVVDVSHEDPEVKFNWYVDGVEVHNAKTKPREEQYNSTYRVVSVLTVLHQDWLNGKEYKCKVSNKGLPSSIEKTISKAKGQPREPQVYTLPPSRDELTKNQVSLTCLVKGFYPSDIAVEWESNGQPENNYKTTPPVLDSDGSFFLYSKLTVDKSRWQQGNVFSCSVMHEALHNHYTQKSLSLSPGKGGSGGSGGGGSGGGGSDIQMTQSPSSLSASVGDRVTITCQASQDISNYLNWYQQKPGKAPKLLIYDASNLETGVPSRFSGSGSGTDFTFTISSLQPEDIATYFCQHFDHLPLAFGGGTKVEIKGGGGSGGGGSGGGGSQVQLQESGPGLVKPSETLSLTCTVSGGSVSSGDYYWTWIRQSPGKGLEWIGHIYYSGNTNYNPSLKSRLTISIDTSKTQFSLKLSSVTAADTAIYYCVRDRVTGAFDIWGQGTMVTVSS | 4.16 |  | 5.47 | 
IgFD-25(anti-CD3/EGFR) (bispecific antibody, human IgG1, kappa) chain 1: EVQLVESGGGLVQPGGSLRLSCAASGFTFNTYAMNWVRQAPGKGLEWVARIRSKYNNYATYYADSVKDRFTISRDDSKNTLYLQMNSLRAEDTAVYYCVRHGNFGNSYVSWFAYWGQGTLVTVSSASTKGPSVFPLAPSSKSTSGGTAALGCLVKDYFPEPVTVSWNSGALTSGVHTFPAVLQSSGLYSLSSVVTVPSSSLGTQTYICNVNHKPSNTKVDKKVEPKSCDKTHTCPPCPAPPVAGPSVFLFPPKPKDTLMISRTPEVTCVVVDVSHEDPEVKFNWYVDGVEVHNAKTKPREEQYNSTYRVVSVLTVLHQDWLNGKEYKCKVSNKGLPSSIEKTISKAKGQPREPQVYTLPPCRDELTKNQVSLWCLVKGFYPSDIAVEWESNGQPENNYKTTPPVLDSDGSFFLYSKLTVDKSRWQQGNVFSCSVMHEALHNHYTQKSLSLSPGK chain 2: QAVVTQEPSLTVSPGGTVTLTCRSSTGAVTTSNYANWVQQKPDHLFRGLIGGTNKRAPGTPARFSGSLLGDKAALTISGAQPEDEAEYYCALWYSNLWVFGGGTKLTVLKRTVAAPSVFIFPPSDEQLKSGTASVVCLLNNFYPREAKVQWKVDNALQSGNSQESVTEQDSKDSTYSLSSTLTLSKADYEKHKVYACEVTHQGLSSPVTKSFNRGECDKTHTCPPCPAPPVAGPSVFLFPPKPKDTLMISRTPEVTCVVVDVSHEDPEVKFNWYVDGVEVHNAKTKPREEQYNSTYRVVSVLTVLHQDWLNGKEYKCKVSNKGLPSSIEKTISKAKGQPREPQVCTLPPSRDELTKNQVSLSCAVKGFYPSDIAVEWESNGQPENNYKTTPPVLDSDGSFFLVSKLTVDKSRWQQGNVFSCSVMHEALHNHYTQKSLSLSPGKGGSGGSGGGGSGGGGSDIQMTQSPSSLSASVGDRVTITCQASQDISNYLNWYQQKPGKAPKLLIYDASNLETGVPSRFSGSGSGTDFTFTISSLQPEDIATYFCQHFDHLPLAFGGGTKVEIKGGGGSGGGGSGGGGSQVQLQESGPGLVKPSETLSLTCTVSGGSVSSGDYYWTWIRQSPGKGLEWIGHIYYSGNTNYNPSLKSRLTISIDTSKTQFSLKLSSVTAADTAIYYCVRDRVTGAFDIWGQGTMVTVSS | 7.72 | 11 | 1.12 | 
